Measured values from paper doi:10.1101/2020.06.18.159806 (bioRxiv, 2020).

Target: the molecule itself
Test: crystal structure

Question: Does LSEGLRESLSSYISLAEDP (domain or fragment, UniProt Q8R4L0 237-255, looked up) [C-terminal tail of mouse SLAP2 (residues 237-255)] bind?
Answer: binds
